B1: ADP-ribosylation factor 6 (Mus musculus), P62331 (parent)
chain: MGKVLSKIFGNKEMRILMLGLDAAGKTTILYKLKLGQSVTTIPTVGFNVETVTYKNVKFNVWDVGGQDKIRPLWRHYYTGTQGLIFVVDCADRDRIDEARQELHRIINDREMRDAIILIFANKQDLPDAMKPHEIQEKLGLTRIRDRNWYVQPSCATSGDGLYEGLTWLTSNYKS
partner: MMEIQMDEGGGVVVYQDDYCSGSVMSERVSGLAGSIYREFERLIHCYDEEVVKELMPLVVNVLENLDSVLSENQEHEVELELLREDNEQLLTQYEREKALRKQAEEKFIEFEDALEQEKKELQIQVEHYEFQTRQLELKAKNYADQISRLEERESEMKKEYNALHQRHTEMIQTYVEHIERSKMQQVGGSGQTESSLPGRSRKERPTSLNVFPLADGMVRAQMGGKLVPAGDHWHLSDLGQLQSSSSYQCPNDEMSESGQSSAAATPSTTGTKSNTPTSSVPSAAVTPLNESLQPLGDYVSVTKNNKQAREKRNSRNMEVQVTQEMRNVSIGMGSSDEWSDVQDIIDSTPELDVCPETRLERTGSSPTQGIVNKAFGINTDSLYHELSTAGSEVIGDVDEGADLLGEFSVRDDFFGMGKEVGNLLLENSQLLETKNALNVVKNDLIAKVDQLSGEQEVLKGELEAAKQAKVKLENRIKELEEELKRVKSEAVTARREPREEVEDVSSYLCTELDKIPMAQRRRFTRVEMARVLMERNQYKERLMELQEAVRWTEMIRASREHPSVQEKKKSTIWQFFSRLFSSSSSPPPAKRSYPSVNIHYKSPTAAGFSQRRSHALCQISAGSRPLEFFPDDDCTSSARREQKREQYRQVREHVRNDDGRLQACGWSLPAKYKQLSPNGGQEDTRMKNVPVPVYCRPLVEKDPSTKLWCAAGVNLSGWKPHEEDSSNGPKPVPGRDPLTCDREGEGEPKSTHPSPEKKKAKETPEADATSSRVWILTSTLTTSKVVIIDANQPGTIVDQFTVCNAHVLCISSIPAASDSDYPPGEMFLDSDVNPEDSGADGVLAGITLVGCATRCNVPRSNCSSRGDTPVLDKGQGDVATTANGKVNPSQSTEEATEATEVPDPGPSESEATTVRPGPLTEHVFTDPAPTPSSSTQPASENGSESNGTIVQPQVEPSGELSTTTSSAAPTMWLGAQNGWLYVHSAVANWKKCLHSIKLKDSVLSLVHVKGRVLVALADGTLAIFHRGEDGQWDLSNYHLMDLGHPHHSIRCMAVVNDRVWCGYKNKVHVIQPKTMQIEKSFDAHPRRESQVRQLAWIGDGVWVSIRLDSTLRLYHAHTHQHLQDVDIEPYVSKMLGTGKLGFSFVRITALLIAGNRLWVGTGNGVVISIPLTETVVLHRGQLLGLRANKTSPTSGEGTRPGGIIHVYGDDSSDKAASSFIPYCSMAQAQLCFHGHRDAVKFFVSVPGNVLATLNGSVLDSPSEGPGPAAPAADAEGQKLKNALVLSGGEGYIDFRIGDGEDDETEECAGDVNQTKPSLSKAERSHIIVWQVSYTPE
B2: ADP-ribosylation factor 6 (Mus musculus), P62331 (parent)
chain: B1 chain
partner: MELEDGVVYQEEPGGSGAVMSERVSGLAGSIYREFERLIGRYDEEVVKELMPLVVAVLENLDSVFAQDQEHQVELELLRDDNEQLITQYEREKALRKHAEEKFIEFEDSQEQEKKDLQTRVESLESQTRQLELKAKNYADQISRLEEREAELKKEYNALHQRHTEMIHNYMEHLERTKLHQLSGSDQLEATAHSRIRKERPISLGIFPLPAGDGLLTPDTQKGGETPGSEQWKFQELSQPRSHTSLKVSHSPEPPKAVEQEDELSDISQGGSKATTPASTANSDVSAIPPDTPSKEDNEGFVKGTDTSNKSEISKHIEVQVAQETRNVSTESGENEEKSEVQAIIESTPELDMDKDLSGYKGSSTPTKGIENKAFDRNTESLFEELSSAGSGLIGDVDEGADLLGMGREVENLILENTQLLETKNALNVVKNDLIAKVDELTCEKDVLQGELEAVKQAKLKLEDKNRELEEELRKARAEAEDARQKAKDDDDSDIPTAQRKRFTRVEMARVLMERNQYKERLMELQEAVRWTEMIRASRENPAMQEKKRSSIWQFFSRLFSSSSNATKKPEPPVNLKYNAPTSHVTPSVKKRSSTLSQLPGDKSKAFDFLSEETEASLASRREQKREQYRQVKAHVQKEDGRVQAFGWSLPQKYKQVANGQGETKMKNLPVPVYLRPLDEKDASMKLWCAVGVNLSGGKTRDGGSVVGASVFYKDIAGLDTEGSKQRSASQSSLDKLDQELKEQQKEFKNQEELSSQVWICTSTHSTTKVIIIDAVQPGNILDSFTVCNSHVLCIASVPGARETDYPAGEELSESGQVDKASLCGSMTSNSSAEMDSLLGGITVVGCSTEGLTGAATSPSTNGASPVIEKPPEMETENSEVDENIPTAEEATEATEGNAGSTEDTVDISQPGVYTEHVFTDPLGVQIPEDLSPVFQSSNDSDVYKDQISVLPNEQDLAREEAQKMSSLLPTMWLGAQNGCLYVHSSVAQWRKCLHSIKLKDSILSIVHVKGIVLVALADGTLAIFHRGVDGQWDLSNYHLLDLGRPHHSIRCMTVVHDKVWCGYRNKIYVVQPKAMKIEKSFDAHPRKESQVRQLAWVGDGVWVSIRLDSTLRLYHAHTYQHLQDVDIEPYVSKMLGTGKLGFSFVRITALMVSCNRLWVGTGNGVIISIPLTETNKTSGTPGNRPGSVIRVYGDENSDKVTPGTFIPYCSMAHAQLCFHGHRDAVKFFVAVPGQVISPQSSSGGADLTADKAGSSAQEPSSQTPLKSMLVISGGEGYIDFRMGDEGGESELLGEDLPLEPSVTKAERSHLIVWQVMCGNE

Variants of: B1
Details: with jip3_mouse Mapk8ip3, Q9ESN9

Variant | effect of a mutation on the interaction
N60T | disrupting interaction
T53E | disrupting interaction
K58C | disrupting interaction

Variants of: B1
Details: with jip3_mouse Mapk8ip3, Q9ESN9
Remark: another data set of the same source

Variant | effect of a mutation on the interaction
T53E | decreasing interaction

Variants of: B1
Details: with jip3_mouse Mapk8ip3, Q9ESN9
Remark: another data set of the same source

Variant | effect of a mutation on the interaction
L19V | decreasing interaction

Variants of: B1
Details: with jip3_mouse Mapk8ip3, Q9ESN9
Remark: another data set of the same source

Variant | effect of a mutation on the interaction
T27N | decreasing interaction

Variants of: B1
Details: with jip3_mouse Mapk8ip3, Q9ESN9
Remark: another data set of the same source

Variant | effect of a mutation on the interaction
T27N | disrupting interaction

Variants of: B1
Details: with jip3_mouse Mapk8ip3, Q9ESN9
Remark: another data set of the same source

Variant | effect of a mutation on the interaction
K58C | decreasing interaction

Variants of: B2
Details: with jip4_mouse Spag9, Q58A65

Variant | effect of a mutation on the interaction
T53E | disrupting interaction
N60T | disrupting interaction
K58C | disrupting interaction

Variants of: B2
Details: with jip4_mouse Spag9, Q58A65
Remark: another data set of the same source

Variant | effect of a mutation on the interaction
T53E | decreasing interaction

Variants of: B2
Details: with jip4_mouse Spag9, Q58A65
Remark: another data set of the same source

Variant | effect of a mutation on the interaction
N60T | decreasing interaction

Variants of: B2
Details: with jip4_mouse Spag9, Q58A65
Remark: another data set of the same source

Variant | effect of a mutation on the interaction
L19V | decreasing interaction

Variants of: B2
Details: with jip4_mouse Spag9, Q58A65
Remark: another data set of the same source

Variant | effect of a mutation on the interaction
K58C | decreasing interaction

Variants of: B2
Details: with jip4_mouse Spag9, Q58A65
Remark: another data set of the same source

Variant | effect of a mutation on the interaction
T27N | disrupting interaction

Variants of: B2
Details: with jip4_mouse Spag9, Q58A65
Remark: another data set of the same source

Variant | effect of a mutation on the interaction
T27N | decreasing interaction

— IntAct's records for PubMed 20493856
